Drawing on patent US20210139548A1 (published 2021), this text covers Ki for six molecules.

To fix the notation:
T1: human neuropeptide Y2 receptor (human, UniProt P49146 1-381)
T1 construct: whole, on cells; also called hNPY2 receptor; hNPY2-R
T1 sequence (looked up): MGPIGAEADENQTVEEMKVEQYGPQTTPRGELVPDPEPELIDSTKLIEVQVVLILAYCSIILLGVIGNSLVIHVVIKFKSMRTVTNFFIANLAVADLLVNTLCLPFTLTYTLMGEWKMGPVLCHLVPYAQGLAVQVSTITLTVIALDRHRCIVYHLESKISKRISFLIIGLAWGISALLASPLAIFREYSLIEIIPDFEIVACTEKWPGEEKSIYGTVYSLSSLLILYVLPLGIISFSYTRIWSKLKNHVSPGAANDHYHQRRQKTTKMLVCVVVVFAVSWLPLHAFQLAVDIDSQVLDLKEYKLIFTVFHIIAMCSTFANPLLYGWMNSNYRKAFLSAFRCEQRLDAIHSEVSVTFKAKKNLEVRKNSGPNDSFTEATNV

B1: Compound 65 (peptide)
peptide: Isovaleryl-APEK([AEEA-AEEA-γGlu-C18 diacid])PEEDASPEELQRYYVEIRHYYNWLTRQRY-NH2
SMILES: CC[C@H](C)[C@H](NC(=O)[C@H](CCC(=O)O)NC(=O)[C@@H](NC(=O)[C@H](Cc1ccc(O)cc1)NC(=O)[C@H](Cc1ccc(O)cc1)NC(=O)[C@H](CCCNC(=N)N)NC(=O)[C@H](CCC(N)=O)NC(=O)[C@H](CC(C)C)NC(=O)[C@H](CCC(=O)O)NC(=O)[C@H](CCC(=O)O)NC(=O)[C@@H]1CCCN1C(=O)[C@H](CO)NC(=O)[C@H](C)NC(=O)[C@H](CC(=O)O)NC(=O)[C@H](CCC(=O)O)NC(=O)[C@H](CCC(=O)O)NC(=O)[C@@H]1CCCN1C(=O)[C@H](CCCCNC(=O)COCCOCCNC(=O)COCCOCCNC(=O)CC[C@H](NC(=O)CCCCCCCCCCCCCCCCC(=O)O)C(=O)O)NC(=O)[C@H](CCC(=O)O)NC(=O)[C@@H]1CCCN1C(=O)[C@H](C)NC(=O)CC(C)C)C(C)C)C(=O)N[C@@H](CCCNC(=N)N)C(=O)N[C@@H](Cc1c[nH]cn1)C(=O)N[C@@H](Cc1ccc(O)cc1)C(=O)N[C@@H](Cc1ccc(O)cc1)C(=O)N[C@@H](CC(N)=O)C(=O)N[C@@H](Cc1c[nH]c2ccccc12)C(=O)N[C@@H](CC(C)C)C(=O)N[C@H](C(=O)N[C@@H](CCCNC(=N)N)C(=O)N[C@@H](CCC(N)=O)C(=O)N[C@@H](CCCNC(=N)N)C(=O)N[C@@H](Cc1ccc(O)cc1)C(N)=O)[C@@H](C)O
B2: Compound 67 (peptide)
peptide: Isovaleryl-APEK([AEEA-AEEA-γGlu-C18 diacid])PEEDSAPEELQRYYVSLRHYYNWLTRQRY-NH2
SMILES: CC(C)CC(=O)N[C@@H](C)C(=O)N1CCC[C@H]1C(=O)N[C@@H](CCC(=O)O)C(=O)N[C@@H](CCCCNC(=O)COCCOCCNC(=O)COCCOCCNC(=O)CC[C@H](NC(=O)CCCCCCCCCCCCCCCCC(=O)O)C(=O)O)C(=O)N1CCC[C@H]1C(=O)N[C@@H](CCC(=O)O)C(=O)N[C@@H](CCC(=O)O)C(=O)N[C@@H](CC(=O)O)C(=O)N[C@@H](CO)C(=O)N[C@@H](C)C(=O)N1CCC[C@H]1C(=O)N[C@@H](CCC(=O)O)C(=O)N[C@@H](CCC(=O)O)C(=O)N[C@@H](CC(C)C)C(=O)N[C@@H](CCC(N)=O)C(=O)N[C@@H](CCCNC(=N)N)C(=O)N[C@@H](Cc1ccc(O)cc1)C(=O)N[C@@H](Cc1ccc(O)cc1)C(=O)N[C@H](C(=O)N[C@@H](CO)C(=O)N[C@@H](CC(C)C)C(=O)N[C@@H](CCCNC(=N)N)C(=O)N[C@@H](Cc1c[nH]cn1)C(=O)N[C@@H](Cc1ccc(O)cc1)C(=O)N[C@@H](Cc1ccc(O)cc1)C(=O)N[C@@H](CC(N)=O)C(=O)N[C@@H](Cc1c[nH]c2ccccc12)C(=O)N[C@@H](CC(C)C)C(=O)N[C@H](C(=O)N[C@@H](CCCNC(=N)N)C(=O)N[C@@H](CCC(N)=O)C(=O)N[C@@H](CCCNC(=N)N)C(=O)N[C@@H](Cc1ccc(O)cc1)C(N)=O)[C@@H](C)O)C(C)C
B3: Compound 71 (peptide)
peptide: Isovaleryl-APEK([AEEA-AEEA-γGlu-C18 diacid])PEEEASPSELQRYYVSLRHYYNWLTRQRY-NH2
SMILES: CC(C)CC(=O)N[C@@H](C)C(=O)N1CCC[C@H]1C(=O)N[C@@H](CCC(=O)O)C(=O)N[C@@H](CCCCNC(=O)COCCOCCNC(=O)COCCOCCNC(=O)CC[C@H](NC(=O)CCCCCCCCCCCCCCCCC(=O)O)C(=O)O)C(=O)N1CCC[C@H]1C(=O)N[C@@H](CCC(=O)O)C(=O)N[C@@H](CCC(=O)O)C(=O)N[C@@H](CCC(=O)O)C(=O)N[C@@H](C)C(=O)N[C@@H](CO)C(=O)N1CCC[C@H]1C(=O)N[C@@H](CO)C(=O)N[C@@H](CCC(=O)O)C(=O)N[C@@H](CC(C)C)C(=O)N[C@@H](CCC(N)=O)C(=O)N[C@@H](CCCNC(=N)N)C(=O)N[C@@H](Cc1ccc(O)cc1)C(=O)N[C@@H](Cc1ccc(O)cc1)C(=O)N[C@H](C(=O)N[C@@H](CO)C(=O)N[C@@H](CC(C)C)C(=O)N[C@@H](CCCNC(=N)N)C(=O)N[C@@H](Cc1c[nH]cn1)C(=O)N[C@@H](Cc1ccc(O)cc1)C(=O)N[C@@H](Cc1ccc(O)cc1)C(=O)N[C@@H](CC(N)=O)C(=O)N[C@@H](Cc1c[nH]c2ccccc12)C(=O)N[C@@H](CC(C)C)C(=O)N[C@H](C(=O)N[C@@H](CCCNC(=N)N)C(=O)N[C@@H](CCC(N)=O)C(=O)N[C@@H](CCCNC(=N)N)C(=O)N[C@@H](Cc1ccc(O)cc1)C(N)=O)[C@@H](C)O)C(C)C
B4: Compound 70 (peptide)
peptide: Isovaleryl-APEK([AEEA-AEEA-γGlu-C18 diacid])PEEAASPEELQRYEVSLRHYYNWLTRQRY-NH2
SMILES: CC(C)CC(=O)N[C@@H](C)C(=O)N1CCC[C@H]1C(=O)N[C@@H](CCC(=O)O)C(=O)N[C@@H](CCCCNC(=O)COCCOCCNC(=O)COCCOCCNC(=O)CC[C@H](NC(=O)CCCCCCCCCCCCCCCCC(=O)O)C(=O)O)C(=O)N1CCC[C@H]1C(=O)N[C@@H](CCC(=O)O)C(=O)N[C@@H](CCC(=O)O)C(=O)N[C@@H](C)C(=O)N[C@@H](C)C(=O)N[C@@H](CO)C(=O)N1CCC[C@H]1C(=O)N[C@@H](CCC(=O)O)C(=O)N[C@@H](CCC(=O)O)C(=O)N[C@@H](CC(C)C)C(=O)N[C@@H](CCC(N)=O)C(=O)N[C@@H](CCCNC(=N)N)C(=O)N[C@@H](Cc1ccc(O)cc1)C(=O)N[C@@H](CCC(=O)O)C(=O)N[C@H](C(=O)N[C@@H](CO)C(=O)N[C@@H](CC(C)C)C(=O)N[C@@H](CCCNC(=N)N)C(=O)N[C@@H](Cc1c[nH]cn1)C(=O)N[C@@H](Cc1ccc(O)cc1)C(=O)N[C@@H](Cc1ccc(O)cc1)C(=O)N[C@@H](CC(N)=O)C(=O)N[C@@H](Cc1c[nH]c2ccccc12)C(=O)N[C@@H](CC(C)C)C(=O)N[C@H](C(=O)N[C@@H](CCCNC(=N)N)C(=O)N[C@@H](CCC(N)=O)C(=O)N[C@@H](CCCNC(=N)N)C(=O)N[C@@H](Cc1ccc(O)cc1)C(N)=O)[C@@H](C)O)C(C)C
B5: Compound 69 (peptide)
peptide: Isovaleryl-APEK([AEEA-AEEA-γGlu-C18 diacid])PEEDSSAEELQRYYVSLRHYYNWLTRQRY-NH2
SMILES: CC(C)CC(=O)N[C@@H](C)C(=O)N1CCC[C@H]1C(=O)N[C@@H](CCC(=O)O)C(=O)N[C@@H](CCCCNC(=O)COCCOCCNC(=O)COCCOCCNC(=O)CC[C@H](NC(=O)CCCCCCCCCCCCCCCCC(=O)O)C(=O)O)C(=O)N1CCC[C@H]1C(=O)N[C@@H](CCC(=O)O)C(=O)N[C@@H](CCC(=O)O)C(=O)N[C@@H](CC(=O)O)C(=O)N[C@@H](CO)C(=O)N[C@@H](CO)C(=O)N[C@@H](C)C(=O)N[C@@H](CCC(=O)O)C(=O)N[C@@H](CCC(=O)O)C(=O)N[C@@H](CC(C)C)C(=O)N[C@@H](CCC(N)=O)C(=O)N[C@@H](CCCNC(=N)N)C(=O)N[C@@H](Cc1ccc(O)cc1)C(=O)N[C@@H](Cc1ccc(O)cc1)C(=O)N[C@H](C(=O)N[C@@H](CO)C(=O)N[C@@H](CC(C)C)C(=O)N[C@@H](CCCNC(=N)N)C(=O)N[C@@H](Cc1c[nH]cn1)C(=O)N[C@@H](Cc1ccc(O)cc1)C(=O)N[C@@H](Cc1ccc(O)cc1)C(=O)N[C@@H](CC(N)=O)C(=O)N[C@@H](Cc1c[nH]c2ccccc12)C(=O)N[C@@H](CC(C)C)C(=O)N[C@H](C(=O)N[C@@H](CCCNC(=N)N)C(=O)N[C@@H](CCC(N)=O)C(=O)N[C@@H](CCCNC(=N)N)C(=O)N[C@@H](Cc1ccc(O)cc1)C(N)=O)[C@@H](C)O)C(C)C
B6: Compound 68 (peptide)
peptide: Isovaleryl-APEK([AEEA-AEEA-γGlu-C18 diacid])PEEEASPEELQAYYVSLRHYYNWLTRQRY-NH2
SMILES: CC(C)CC(=O)N[C@@H](C)C(=O)N1CCC[C@H]1C(=O)N[C@@H](CCC(=O)O)C(=O)N[C@@H](CCCCNC(=O)COCCOCCNC(=O)COCCOCCNC(=O)CC[C@H](NC(=O)CCCCCCCCCCCCCCCCC(=O)O)C(=O)O)C(=O)N1CCC[C@H]1C(=O)N[C@@H](CCC(=O)O)C(=O)N[C@@H](CCC(=O)O)C(=O)N[C@@H](CCC(=O)O)C(=O)N[C@@H](C)C(=O)N[C@@H](CO)C(=O)N1CCC[C@H]1C(=O)N[C@@H](CCC(=O)O)C(=O)N[C@@H](CCC(=O)O)C(=O)N[C@@H](CC(C)C)C(=O)N[C@@H](CCC(N)=O)C(=O)N[C@@H](C)C(=O)N[C@@H](Cc1ccc(O)cc1)C(=O)N[C@@H](Cc1ccc(O)cc1)C(=O)N[C@H](C(=O)N[C@@H](CO)C(=O)N[C@@H](CC(C)C)C(=O)N[C@@H](CCCNC(=N)N)C(=O)N[C@@H](Cc1c[nH]cn1)C(=O)N[C@@H](Cc1ccc(O)cc1)C(=O)N[C@@H](Cc1ccc(O)cc1)C(=O)N[C@@H](CC(N)=O)C(=O)N[C@@H](Cc1c[nH]c2ccccc12)C(=O)N[C@@H](CC(C)C)C(=O)N[C@H](C(=O)N[C@@H](CCCNC(=N)N)C(=O)N[C@@H](CCC(N)=O)C(=O)N[C@@H](CCCNC(=N)N)C(=O)N[C@@H](Cc1ccc(O)cc1)C(N)=O)[C@@H](C)O)C(C)C

*1 amine or outer side, *2 acyl side, *3 side chain or, on linkers, in order; H or OH if unused. Side-chain parts run from the residue outwards. The star is where a group is joined. C18 diacid = O=C(O)CCCCCCCCCCCCCCCCC(=O)*; γGlu = O=C(O)[C@H](CCC(=O)[*:2])N[*:1]; Isovaleryl = CC(C)CC(=O)*; AEEA = NCCOCCOCC(=O)O

For the experiment, the target named is T1, human neuropeptide Y2 receptor. The experiment in a line: radioligand competition (125I-PYY(1-36)), hNPY2R membranes. An outline of the steps:
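Commercial human Y2 receptor membranes (0.5 μg protein/well) were incubated with peptide for 2 h at room temperature in 50 mM HEPES, 5 mM MgCl₂, 1 mM CaCl₂, pH 7.4, with 0.2% ovalbumin. Bound radioligand was separated on PEI-soaked GF/C filters and counted by scintillation, and IC₅₀ came from nonlinear sigmoidal regression.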
(In general: Loss of bound radioactivity is the signal in a displacement assay; it reports binding, not function.)
B1: the Ki amounted to 1.02 nM.
B2 registered a Ki of 4.37 nM.
The result for B3 reads 5.22 nM.
The result for B4 reads 4.86 nM; that for B5, 5.74 nM.
In turn, B6 displayed a Ki of 8.47 nM.

By Ki is commonly meant a dissociation constant, usually derived from enzyme kinetics or from competition with a known ligand. A lower Ki goes with tighter binding.
